We go through three substances from paper PMC2169363.

The target in test [1] is unphosphorylated smooth muscle myosin (chicken gizzard) (chicken) (UniProt P10587). The experiment in a line: co-sedimentation.
Test [2] deals with phosphorylated smooth muscle myosin (chicken gizzard) (chicken) (UniProt P10587). In words: co-sedimentation.

Substance “recombinant 38k protein, full-length (1-207) (natural protein)” gave an amount recovered in the precipitate with 1.1 μM myosin (4.0 μM added) in test [1] of 1 µM.

In the case of “38k protein (native, purified from chicken gizzard smooth muscle) (natural protein)”, the EC50 (commonly the concentration that produces a half-maximal response) in test [2] is 1400 nM; in test [1] it was 1700 nM.

Consider “human p32 (recombinant) (from UniProt Q07021 74-282) (natural protein)”, for which, in test [1], the EC50 turned out to be 1800 nM.
